Assay results published in the RNAGym collection of RNA variant scans (doi:10.1073/pnas.2313332121).

B1: TPR t1 (parent)
chain: GACCAAUCUGCCCUCAGAGCUCGAGAACAUCUUCGGAUGCAGAGGAGGCAGGCUUCGGUGGCGCGAUAGCGCCAACGUCCUCAACCUCCAAUGCAUCCCACCACAUGAUGAUGCCUGAAGAGCCUUGGUUUUUUG

Variants of: B1
Test: polymerase ribozyme fitness, log enrichment relative to wild type (log ratio); higher = more active; in vitro selection for triplet polymerase activity
Method in brief: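 Only genotypes with ≥10 input reads and ≥1 read per output were kept after Illumina sequencing of input and output libraries. These libraries were PCR-built, transcribed mutants of each subunit of a heterodimeric triplet polymerase ribozyme, each put through one triplicate in vitro selection round with frozen incubation at −7 °C, gel excision of extended constructs, streptavidin-bead capture and RT-PCR. Fitness is a logarithmic ratio of genotype enrichment to wild-type enrichment, from inverse-variance-weighted replicate averages, with the logarithm in base 2.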

Variant | polymerase ribozyme fitness (log ratio)
G47A C114A | -2.59
C64U C88U U106A U130A | -0.803
C3A A29U G63A C82A A91C C114U G128U | -3.24
G39U C86G C104A | -4.01
C34A U59A C115U A118U | -6.82
G39U A68G C123U U133A | -2.96
G60U A100C | -1.26
C11U U33A C85G C101U | -5.74
U54A C70G C86U | -3.2
C53A G60A A121U | 1.33
U38A A41C C72U G127U | -4.53
G60C C104A | -2.18
G60A G63A | -2.96
G63U U78A | -0.683
C56G C82U A91C U116C | -2.61
C34G C62U C94G A105C U130C | -7.14
C49A C79G A103G U112G C114U U116C | -7.2
G113C U125C | -2.26
C15U G69U | -1.38
C4A C56G C102U | -4
C8G A16G C56G C72A A100C | -1.46
G57C C62U G135U | -1.15
C8U C64A U78C | -6.51
C13G G51A | -4.69

Variant | polymerase ribozyme fitness (log ratio)
G61C U78G | -4.7
C3U C62G U106A G113A | -4.93
C53A A103U | -4.67
U9A U55G C56G | -0.896
A2U C88G | -3.37
G61A C124G | 1.77
G42A U129A | -3.37
G52U U59C | -0.547
G45U G63A U78G G120C | -1.71
A29C C56G C73A A119G | -3.16
C11A C40U G48C C79U C102U | -5.15
G39A C72U U78C C99U G120A U126C | -2.95
U7A C40U C85G C104U | -2.31
G17U G47A G71U | -3.24
C53U U59C U96A | -1.65
A16U C82U | -2.17
G42C G60C G77C U78A U130G G135C | -3.55
U78G C89A G117A | -4.25
G61A G128C | -1.93
G17U C49G C64U U131C | -2.89
C8G C20U A84U G122U | -0.907
G60C C62U | -2.34
A6G C62U C73U U112G | 0.725
G10C G35A G69U U81G C82G C123A | -2.07

Variant | polymerase ribozyme fitness (log ratio)
C56U U106A | 0.0907
A6U G45U C101A | -2.89
C79G C85A | -3.62
A46C C86U A95G C114G | -3.71
C8U U9A A18U C76G | -1.89
U33G C56A C88U | -4.09
C62A C82A | -0.246
U7A C31U G60A | -4.77
C40G U55G G71A C85A | -3.12
C12G G35A G48U G57U C80U | -4.47
C8U G48C | 0.186
C124A U134G | 3.41
C8G G19U U125A | -2.65
C97U G120U U130C | -0.251
U7G G61U C70G | -5.24
G63C A111U | -3.26
G48A C62A C82A C85G G110C U133A | -7.12
G44A G45U G61U A83C | -1.59
A6U U9C G60C | -0.604
C72U C99U A119U | -3.8
A50C C73A A74U | -1.27
A37U A83U U106A | 0.192
C3U C11G U21G G113U G127A | -2.58
C56U C82U C86A U112G U129C | -1.4

Variant | polymerase ribozyme fitness (log ratio)
C98A G120C | -4.15
C53G U87G G127U U133G | -0.973
C11G U21G C53A U55C A68G | -5
C101U U129A | -1.62
C40G C94G A121U | -0.125
C13G G17U C64U G93C | -4.19
C13A G52A G128C | -4.3
C11G C22G G36A A83C | -3.71
G42C A43C G71A U81A G120U | -6.28
C20U A46C C72G | -3.17
A2G C8U A83G | -0.602
C62A G135C | -0.579
C70U C80A U87A | -5
U9G C73U G113A | -0.47
G42A G128C | -4.63
A50C G63U G69U U81G G128C | -3.4
C49G G128U | -2.74
U9C A29G G58A A90U G110A | -4.22
C15U G42U G44C C94U | -3.39
C34G G36U C72U U96C G127C U130G | -6.19
G42C C56U G69U G93A G120C U131G | -3.67
G47A U133A | -1.33
G63U U87A | -1.45
G69U C86G C94U C124G G135A | 0.0412

Variant | polymerase ribozyme fitness (log ratio)
A5C U7G U54A G110C | -4.81
U14A A18U C31G U38G G107A C124A | -6.73
A37U G63C C104U U116C | -1.47
G42C G127U | -2.05
C8U A74G C123G | 1.71
A18U G63A | -3.69
G35U A46G G69U C98A | -0.783
C98U C102A A111G A121G G122A | -5.08
C4U C86U C101G | -1.82
A16G A74U | -1.36
U9G C11U G35U G69U C89U | -3.13
G63A C124A | 0.45
U109A U112C U130A G135U | -5.01
C64G U81A G120C | -6.58
G44C U54A C64U C82U C114G | -4.69
C8G A46G A83G U126G G127A | -1.72
U109G U129A | -5.24
C62U U92G | -2.9
A18C A43G C85G U96G | -4.07
A26U U54C C72U U133A | -2.18
A18U G47U G52A | -5.39
A5U A95U | -1.24
A46C G47A A50G C97A A121G C124G | -5.64
C12A G117C A121G | -3.52

Variant | polymerase ribozyme fitness (log ratio)
C22U A46C G61A | -4.91
G58A A111C A119C G120U G127U | -1.16
A6C C70U | -0.65
C72U A119U | -0.327
C53G C97A G113A | -4.75
G10U U21G A46U | -3.02
U7A G113U | -2.15
C4G A37G C53U A111C | -1.68
G57C G60U A100U U130G | -0.0419
C34A G71U U92A C114G | -7.83
A43G G63A A121G U129A | -3.06
C62U A66U C73G C104U U112C | -1.37
C72G G117U | -2.41
C11U C28U G120A C124G | 0.0586
G45U U59G U112A | -0.539
C72G G117C U130G | -4.4
A43U G44C G63A | -2.96
A24G G44U C64U U133G | -3.26
G58U G61C A90G | 0.258
G47U A100C U106A C124G | 0.694
C53G C101A | -1.03
U55A C101G | -1.85
G10C C72U A118G | -1.84
U38G A43U U87C | -2.42

Variant | polymerase ribozyme fitness (log ratio)
A6C C73U C85A C114U | -3.29
C72A U81G G110U | -6.47
G44U C53A C70A | -2.06
C124G G128C | -0.216
C53G A119U C123A | -1.16
G48U G58U G60U C82G | 0.276
G57C C97U | -0.494
G45U U112A | 0.359
C11U A16U G39C G42A C56U | -3.73
A18G A66U G113A U126C U133A | -4.19
A24G G120U | -1.65
U32C G52A U78C C101A | -1.13
C13G C104A G110U | -6.08
C72U C98U | -1.53
A46G C73U C88A U130A | -3.03
C13G U32C C85G | -4
C72A U109A C123U | -6.2
A18C C104U C123G | 0.269
C15U A41U | -2.32
G57U U81G | -0.222
G52A C114A | -2.73
C22U G113U | -5.27
G36A C123A | 0.117
